Measured values from patent US20180085456A1 (AFFIMED, published 2018).

Target: T1, CD30 on CD30+ lymphoma cells (KARPAS-299) (UniProt P28908 19-595, limits assumed)
T1 sequence (looked up): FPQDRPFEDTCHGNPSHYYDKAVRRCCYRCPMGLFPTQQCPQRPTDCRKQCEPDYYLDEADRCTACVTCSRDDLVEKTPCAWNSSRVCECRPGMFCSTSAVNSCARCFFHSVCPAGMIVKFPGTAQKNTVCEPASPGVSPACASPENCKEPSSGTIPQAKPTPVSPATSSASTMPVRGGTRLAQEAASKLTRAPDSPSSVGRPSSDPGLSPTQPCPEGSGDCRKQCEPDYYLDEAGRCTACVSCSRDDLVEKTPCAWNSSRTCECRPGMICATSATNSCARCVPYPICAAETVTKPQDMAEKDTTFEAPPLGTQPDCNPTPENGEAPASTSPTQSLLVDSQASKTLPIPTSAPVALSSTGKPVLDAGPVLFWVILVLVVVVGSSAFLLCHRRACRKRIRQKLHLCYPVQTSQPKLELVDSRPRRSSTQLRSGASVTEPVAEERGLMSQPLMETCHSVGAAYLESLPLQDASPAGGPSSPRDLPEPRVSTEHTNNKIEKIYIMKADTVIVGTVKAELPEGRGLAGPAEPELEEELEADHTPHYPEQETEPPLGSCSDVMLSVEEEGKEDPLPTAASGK
Experiment: cell-based or functional assay

B1: bispecific CD30/CD16A tandem diabody (AFM13) (bispecific antibody)
chain: QVQLVQSGAEVKKPGESLKVSCKASGYTFTSYYMHWVRQAPGQGLEWMGIINPSGGSTSYAQKFQGRVTMTRDTSTSTVYMELSSLRSEDTAVYYCARGSAYYYDFADYWGQGTLVTVSSGGSGGSGGSDIVMTQSPKFMSTSVGDRVTVTCKASQNVGTNVAWFQQKPGQSPKVLIYSASYRYSGVPDRFTGSGSGTDFTLTISNVQSEDLAEYFCQQYHTYPLTFGGGTKLEINGGSGGSGGSQVQLQQSGAELARPGASVKMSCKASGYTFTTYTIHWVRQRPGHDLEWIGYINPSSGYSDYNQNFKGKTTLTADKSSNTAYMQLNSLTSEDSAVYYCARRADYGNYEYTWFAYWGQGTTVTVSSGGSGGSGGSSYVLTQPSSVSVAPGQTATISCGGHNIGSKNVHWYQQRPGQSPVLVIYQDNKRPSGIPERFSGSNSGNTATLTISGTQAMDEADYYCQVWDNYSVLFGGGTKLTVL
potency and efficacy toward target and effector cells (EC50): 0.015 nM
